This is an account of results in doi:10.1101/2025.11.01.685996 (bioRxiv, 2025).

In experiment [1] the target is human C3aR with C-terminal SmBiT (hC3aR) (human) (UniProt Q16581).
Experiment [2] addresses human C5aR1 with C-terminal SmBiT (hC5aR1-SmBiT) (human) (UniProt P21730).
Experiment [3] deals with human C5aR1-Rluc8 (human) (UniProt P21730).
Experiment [4] deals with mouse C5aR2, purified from Sf9 cells (mC5aR2) (not stated | mouse) (UniProt P08173). Description: cryo-EM structure.
Experiment [5] shares this target. Description: SEC.
Experiment [6] concerns the target T1, mouse C5aR1, purified (mC5aR1) for cryo-EM and HDX-MS (mouse, UniProt P30993 1-351).
T1 sequence: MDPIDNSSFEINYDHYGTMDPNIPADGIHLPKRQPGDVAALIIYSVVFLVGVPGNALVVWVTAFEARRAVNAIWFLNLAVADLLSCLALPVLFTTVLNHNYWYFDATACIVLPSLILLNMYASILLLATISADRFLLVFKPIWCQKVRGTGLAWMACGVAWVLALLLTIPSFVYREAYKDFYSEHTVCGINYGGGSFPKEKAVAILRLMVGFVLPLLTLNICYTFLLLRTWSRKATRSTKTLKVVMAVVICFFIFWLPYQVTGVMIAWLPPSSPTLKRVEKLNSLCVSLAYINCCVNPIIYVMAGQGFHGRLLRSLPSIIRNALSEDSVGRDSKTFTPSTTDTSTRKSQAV
Description: cryo-EM structure.

Sequence of human C3aR with C-terminal SmBiT (hC3aR) (human) (Q16581 whole entry): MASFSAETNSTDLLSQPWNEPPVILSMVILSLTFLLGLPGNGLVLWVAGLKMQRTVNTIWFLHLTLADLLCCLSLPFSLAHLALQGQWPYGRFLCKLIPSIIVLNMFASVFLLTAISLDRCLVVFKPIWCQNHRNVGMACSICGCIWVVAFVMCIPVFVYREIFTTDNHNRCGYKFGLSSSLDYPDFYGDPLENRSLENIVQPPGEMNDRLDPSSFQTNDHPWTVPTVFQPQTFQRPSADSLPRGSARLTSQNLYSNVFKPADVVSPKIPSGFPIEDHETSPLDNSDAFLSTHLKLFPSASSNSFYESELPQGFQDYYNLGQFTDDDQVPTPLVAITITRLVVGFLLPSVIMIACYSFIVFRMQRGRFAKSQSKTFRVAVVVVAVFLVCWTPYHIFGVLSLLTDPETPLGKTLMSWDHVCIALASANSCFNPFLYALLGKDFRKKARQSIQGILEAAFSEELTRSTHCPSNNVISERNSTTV
Sequence of human C5aR1 with C-terminal SmBiT (hC5aR1-SmBiT) (human) (P21730 whole entry): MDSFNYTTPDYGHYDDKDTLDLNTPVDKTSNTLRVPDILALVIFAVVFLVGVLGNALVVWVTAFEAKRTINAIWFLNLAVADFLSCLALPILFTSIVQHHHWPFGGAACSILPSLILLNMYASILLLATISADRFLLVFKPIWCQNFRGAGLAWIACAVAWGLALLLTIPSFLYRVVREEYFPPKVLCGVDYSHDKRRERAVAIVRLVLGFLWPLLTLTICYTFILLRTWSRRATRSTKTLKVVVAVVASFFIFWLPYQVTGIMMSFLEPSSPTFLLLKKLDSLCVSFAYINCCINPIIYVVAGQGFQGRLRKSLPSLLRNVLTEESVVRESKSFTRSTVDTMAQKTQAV
Sequence of human C5aR1-Rluc8 (human) (P21730 whole entry): as above

As to “R8Y, [Tyr1,Tyr8]BM2020-8, C5aR2-selective peptide agonist”, in experiment [1], the activation of C3aR (Figure S10D and Table S1) is more than 10 µM. In experiment [2], the activation of C5aR1 (Figure S10D and Table S1) is more than 10 µM.

As to [Tyr8]BM2020-8 peptide, the efficacy at C5aR1 relative to C5a; read-out not given in experiment [3] is 41%. One may read the stoichiometry N as the number of molecules, sites or subunits per partner or assembly. Take “mouse C5aR2, purified from Sf9 cells (mC5aR2) (from UniProt P08173 2-23) (receptor)”: the stoichiometry N in experiment [4] and in experiment [5] was 2 in each case.

B1: mouse complement anaphylatoxin C5a, recombinant (mC5a) (ligand)
chain: NLHLLRQKIEEQAAKYKHSVPKKCCYDGARVNFYETCEERVARVTIGPLCIRAFNECCTIANKIRKESPHKPVQLGR
Take B1: the binding result in experiment [6] is given as “binds”.
